What follows are binders tested against Feline FcRn (complex of FcRn-α subunit and β-microglobulin, C-terminal His tag) (feline) (assay: SPR Biacore, biotin-FcRn on SA chip, pH 6).
Feline FcRn (complex of FcRn-α subunit and β-microglobulin, C-terminal His tag) (feline), sequence (chain, as listed by the source, chain 1 of 2): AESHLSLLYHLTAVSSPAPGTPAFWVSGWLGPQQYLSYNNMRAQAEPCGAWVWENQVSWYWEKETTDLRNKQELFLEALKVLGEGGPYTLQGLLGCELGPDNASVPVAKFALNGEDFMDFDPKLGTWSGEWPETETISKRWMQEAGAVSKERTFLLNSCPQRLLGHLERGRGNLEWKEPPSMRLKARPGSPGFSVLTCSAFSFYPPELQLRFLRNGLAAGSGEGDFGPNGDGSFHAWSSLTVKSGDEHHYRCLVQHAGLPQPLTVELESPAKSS
Feline FcRn (complex of FcRn-α subunit and β-microglobulin, C-terminal His tag) (feline), sequence (Q5MGS7 21-118, chain 2 of 2): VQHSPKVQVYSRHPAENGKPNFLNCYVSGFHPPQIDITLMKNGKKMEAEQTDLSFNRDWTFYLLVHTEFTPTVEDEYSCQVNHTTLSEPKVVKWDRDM

Binder | Kd
mAb4 (felinized anti-IL31 antibody ZTS-5864) S428E, feline IgG1a (antibody, part only; not given: light constant region, not shown: another chain or arm of the molecule) heavy: DVQLVESGGDLVKPGGSLRLTCVASGFTFSDYAMSWVRQAPGKGLQWVAGIDSVGSGTSYADSVKGRFTISRDNAKNTLYLQMNSLKTEDTATYYCASGFPGSFEHWGQGTLVTVSSASTTAPSVFPLAPSCGTTSGATVALACLVLGYFPEPVTVSWNSGALTSGVHTFPAVLQASGLYSLSSMVTVPSSRWLSDTFTCNVAHPPSNTKVDKTVRKTDHPPGPKPCDCPKCPPPEMLGGPSIFIFPPKPKDTLSISRTPEVTCLVVDLGPDDSDVQITWFVDNTQVYTAKTSPREEQFNSTYRVVSVLPILHQDWLKGKEFKCKVNSKSLPSPIERTISKAKGQPHEPQVYVLPPAQEELSRNKVSVTCLIKSFHPPDIAVEWEITGQPEPENNYRTTPPQLDSDGTYFVYSKLSVDRSHWQRGNTYTCSVEHEALHSHHTQKSLTQSPGK VL: QSVLTQPSSVSGTLGQRITISCTGSSSNIGSGYVGWYQQVPGMGPKTVIYYNSDRPSGVPDRFSGSKSGSSGTLTITGLQAEDEADYYCSVYDRTFNAVFGGGT | 37.9 nM
mAb4 (felinized anti-IL31 antibody ZTS-5864) S428N, feline IgG1a (antibody, part only; not given: light constant region, not shown: another chain or arm of the molecule) heavy: DVQLVESGGDLVKPGGSLRLTCVASGFTFSDYAMSWVRQAPGKGLQWVAGIDSVGSGTSYADSVKGRFTISRDNAKNTLYLQMNSLKTEDTATYYCASGFPGSFEHWGQGTLVTVSSASTTAPSVFPLAPSCGTTSGATVALACLVLGYFPEPVTVSWNSGALTSGVHTFPAVLQASGLYSLSSMVTVPSSRWLSDTFTCNVAHPPSNTKVDKTVRKTDHPPGPKPCDCPKCPPPEMLGGPSIFIFPPKPKDTLSISRTPEVTCLVVDLGPDDSDVQITWFVDNTQVYTAKTSPREEQFNSTYRVVSVLPILHQDWLKGKEFKCKVNSKSLPSPIERTISKAKGQPHEPQVYVLPPAQEELSRNKVSVTCLIKSFHPPDIAVEWEITGQPEPENNYRTTPPQLDSDGTYFVYSKLSVDRSHWQRGNTYTCSVNHEALHSHHTQKSLTQSPGK VL: QSVLTQPSSVSGTLGQRITISCTGSSSNIGSGYVGWYQQVPGMGPKTVIYYNSDRPSGVPDRFSGSKSGSSGTLTITGLQAEDEADYYCSVYDRTFNAVFGGGT | 49 nM
mAb4 (felinized anti-IL31 antibody ZTS-5864) S428H, feline IgG1a (antibody, part only; not given: light constant region, not shown: another chain or arm of the molecule) heavy: DVQLVESGGDLVKPGGSLRLTCVASGFTFSDYAMSWVRQAPGKGLQWVAGIDSVGSGTSYADSVKGRFTISRDNAKNTLYLQMNSLKTEDTATYYCASGFPGSFEHWGQGTLVTVSSASTTAPSVFPLAPSCGTTSGATVALACLVLGYFPEPVTVSWNSGALTSGVHTFPAVLQASGLYSLSSMVTVPSSRWLSDTFTCNVAHPPSNTKVDKTVRKTDHPPGPKPCDCPKCPPPEMLGGPSIFIFPPKPKDTLSISRTPEVTCLVVDLGPDDSDVQITWFVDNTQVYTAKTSPREEQFNSTYRVVSVLPILHQDWLKGKEFKCKVNSKSLPSPIERTISKAKGQPHEPQVYVLPPAQEELSRNKVSVTCLIKSFHPPDIAVEWEITGQPEPENNYRTTPPQLDSDGTYFVYSKLSVDRSHWQRGNTYTCSVHHEALHSHHTQKSLTQSPGK VL: QSVLTQPSSVSGTLGQRITISCTGSSSNIGSGYVGWYQQVPGMGPKTVIYYNSDRPSGVPDRFSGSKSGSSGTLTITGLQAEDEADYYCSVYDRTFNAVFGGGT | 25.5 nM
mAb4 (felinized anti-IL31 antibody ZTS-5864) S428F, feline IgG1a (antibody, part only; not given: light constant region, not shown: another chain or arm of the molecule) heavy: DVQLVESGGDLVKPGGSLRLTCVASGFTFSDYAMSWVRQAPGKGLQWVAGIDSVGSGTSYADSVKGRFTISRDNAKNTLYLQMNSLKTEDTATYYCASGFPGSFEHWGQGTLVTVSSASTTAPSVFPLAPSCGTTSGATVALACLVLGYFPEPVTVSWNSGALTSGVHTFPAVLQASGLYSLSSMVTVPSSRWLSDTFTCNVAHPPSNTKVDKTVRKTDHPPGPKPCDCPKCPPPEMLGGPSIFIFPPKPKDTLSISRTPEVTCLVVDLGPDDSDVQITWFVDNTQVYTAKTSPREEQFNSTYRVVSVLPILHQDWLKGKEFKCKVNSKSLPSPIERTISKAKGQPHEPQVYVLPPAQEELSRNKVSVTCLIKSFHPPDIAVEWEITGQPEPENNYRTTPPQLDSDGTYFVYSKLSVDRSHWQRGNTYTCSVFHEALHSHHTQKSLTQSPGK VL: QSVLTQPSSVSGTLGQRITISCTGSSSNIGSGYVGWYQQVPGMGPKTVIYYNSDRPSGVPDRFSGSKSGSSGTLTITGLQAEDEADYYCSVYDRTFNAVFGGGT | 29.7 nM
mAb5 (felinized anti-IL31 antibody) S428M and S434P, feline IgG1a (antibody, part only; not given: variable domains of mAb5, not shown: another chain or arm of the molecule; small tags and cut ends) constant: ASTTAPSVFPLAPSCGTTSGATVALACLVLGYFPEPVTVSWNSGALTSGVHTFPAVLQASGLYSLSSMVTVPSSRWLSDTFTCNVAHPPSNTKVDKTVRKTDHPPGPKPCDCPKCPPPEMLGGPSIFIFPPKPKDTLSISRTPEVTCLVVDLGPDDSDVQITWFVDNTQVYTAKTSPREEQFNSTYRVVSVLPILHQDWLKGKEFKCKVNSKSLPSPIERTISKAKGQPHEPQVYVLPPAQEELSRNKVSVTCLIKSFHPPDIAVEWEITGQPEPENNYRTTPPQLDSDGTYFVYSKLSVDRSHWQRGNTYTCSVMHEALHPHHTQKSLTQSPGK | 33.2 nM

Further lines, results first:

Kd | Binder
18.8 nM | mAb4 (felinized anti-IL31 antibody ZTS-5864) S428M, feline IgG1a (antibody, part only; not given: light constant region, not shown: another chain or arm of the molecule) heavy: DVQLVESGGDLVKPGGSLRLTCVASGFTFSDYAMSWVRQAPGKGLQWVAGIDSVGSGTSYADSVKGRFTISRDNAKNTLYLQMNSLKTEDTATYYCASGFPGSFEHWGQGTLVTVSSASTTAPSVFPLAPSCGTTSGATVALACLVLGYFPEPVTVSWNSGALTSGVHTFPAVLQASGLYSLSSMVTVPSSRWLSDTFTCNVAHPPSNTKVDKTVRKTDHPPGPKPCDCPKCPPPEMLGGPSIFIFPPKPKDTLSISRTPEVTCLVVDLGPDDSDVQITWFVDNTQVYTAKTSPREEQFNSTYRVVSVLPILHQDWLKGKEFKCKVNSKSLPSPIERTISKAKGQPHEPQVYVLPPAQEELSRNKVSVTCLIKSFHPPDIAVEWEITGQPEPENNYRTTPPQLDSDGTYFVYSKLSVDRSHWQRGNTYTCSVMHEALHSHHTQKSLTQSPGK VL: QSVLTQPSSVSGTLGQRITISCTGSSSNIGSGYVGWYQQVPGMGPKTVIYYNSDRPSGVPDRFSGSKSGSSGTLTITGLQAEDEADYYCSVYDRTFNAVFGGGT
16.7 nM | mAb4 (felinized anti-IL31 antibody ZTS-5864) S428I, feline IgG1a (antibody, part only; not given: light constant region, not shown: another chain or arm of the molecule) heavy: DVQLVESGGDLVKPGGSLRLTCVASGFTFSDYAMSWVRQAPGKGLQWVAGIDSVGSGTSYADSVKGRFTISRDNAKNTLYLQMNSLKTEDTATYYCASGFPGSFEHWGQGTLVTVSSASTTAPSVFPLAPSCGTTSGATVALACLVLGYFPEPVTVSWNSGALTSGVHTFPAVLQASGLYSLSSMVTVPSSRWLSDTFTCNVAHPPSNTKVDKTVRKTDHPPGPKPCDCPKCPPPEMLGGPSIFIFPPKPKDTLSISRTPEVTCLVVDLGPDDSDVQITWFVDNTQVYTAKTSPREEQFNSTYRVVSVLPILHQDWLKGKEFKCKVNSKSLPSPIERTISKAKGQPHEPQVYVLPPAQEELSRNKVSVTCLIKSFHPPDIAVEWEITGQPEPENNYRTTPPQLDSDGTYFVYSKLSVDRSHWQRGNTYTCSVIHEALHSHHTQKSLTQSPGK VL: QSVLTQPSSVSGTLGQRITISCTGSSSNIGSGYVGWYQQVPGMGPKTVIYYNSDRPSGVPDRFSGSKSGSSGTLTITGLQAEDEADYYCSVYDRTFNAVFGGGT
21.4 nM | mAb4 (felinized anti-IL31 antibody ZTS-5864) S428K, feline IgG1a (antibody, part only; not given: light constant region, not shown: another chain or arm of the molecule) heavy: DVQLVESGGDLVKPGGSLRLTCVASGFTFSDYAMSWVRQAPGKGLQWVAGIDSVGSGTSYADSVKGRFTISRDNAKNTLYLQMNSLKTEDTATYYCASGFPGSFEHWGQGTLVTVSSASTTAPSVFPLAPSCGTTSGATVALACLVLGYFPEPVTVSWNSGALTSGVHTFPAVLQASGLYSLSSMVTVPSSRWLSDTFTCNVAHPPSNTKVDKTVRKTDHPPGPKPCDCPKCPPPEMLGGPSIFIFPPKPKDTLSISRTPEVTCLVVDLGPDDSDVQITWFVDNTQVYTAKTSPREEQFNSTYRVVSVLPILHQDWLKGKEFKCKVNSKSLPSPIERTISKAKGQPHEPQVYVLPPAQEELSRNKVSVTCLIKSFHPPDIAVEWEITGQPEPENNYRTTPPQLDSDGTYFVYSKLSVDRSHWQRGNTYTCSVKHEALHSHHTQKSLTQSPGK VL: QSVLTQPSSVSGTLGQRITISCTGSSSNIGSGYVGWYQQVPGMGPKTVIYYNSDRPSGVPDRFSGSKSGSSGTLTITGLQAEDEADYYCSVYDRTFNAVFGGGT
18.6 nM | mAb5 (felinized anti-IL31 antibody) S428M and S434L, feline IgG1a (antibody, part only; not given: variable domains of mAb5, not shown: another chain or arm of the molecule; small tags and cut ends) constant: ASTTAPSVFPLAPSCGTTSGATVALACLVLGYFPEPVTVSWNSGALTSGVHTFPAVLQASGLYSLSSMVTVPSSRWLSDTFTCNVAHPPSNTKVDKTVRKTDHPPGPKPCDCPKCPPPEMLGGPSIFIFPPKPKDTLSISRTPEVTCLVVDLGPDDSDVQITWFVDNTQVYTAKTSPREEQFNSTYRVVSVLPILHQDWLKGKEFKCKVNSKSLPSPIERTISKAKGQPHEPQVYVLPPAQEELSRNKVSVTCLIKSFHPPDIAVEWEITGQPEPENNYRTTPPQLDSDGTYFVYSKLSVDRSHWQRGNTYTCSVMHEALHLHHTQKSLTQSPGK

Each binder was assayed against T1, Feline FcRn (complex of FcRn-α subunit and β-microglobulin, C-terminal His tag) (feline, UniProt A0ABI7ZNY9 23-296; Q5MGS7 21-118) (assay: SPR Biacore, FcRn on sensor, pH 6; pH 6).
T1 construct: treated here as one molecule
Description: As discussed in the above Example section, Feline FcRn was isolated, prepared and mutant Fc IgGs were assayed against feline FcRn according to Strietzelg et. al. Standard RACE PCR was used to amplify feline FcRn-α subunit and β-microglobulin. FcRn-α subunit and β-microglobulin were co-transfected into HEK 293 cells and the FcRn complex was purified by IMAC affinity purification via the c-terminal His tag. KD's were measured by Biacore 3000 or Biacore T200 (GE Healthcare, Pittsburgh, PA, USA) using a CM5 sensor chip.
FcRn was captured on the surface of the sensor using a modified SA capture method. 10 mM MES; 150 mM NaCl; 0.005% Tween20; 0.5 mg/mL BSA; pH6 was used as capture, method running buffer and titrations. 1×HBS-P, 0.5 mg/mL BSA; pH7.4 was also used for method running buffer and titrations. Fc mutant IgGs were flowed over receptor surfaces and affinity was determined using T200 evaluation software or Biacore Insight Evaluation software. Blank runs containing buffer only were subtracted out from all runs. Flow cells were regenerated using 50 mM Tris pH8 or pH9. Runs were performed at 15° C.

Kd | Binder
147 nM | mAb6 anti-TGFβ antibody ZTS-310, wildtype (antibody, IgG1a, 'Feline IgG1a subclass B was used'; The listing names the entries heavy chain and light chain; also called mAb6 ID No. 1; ZTS-310 WT) heavy: QVLLVQSGAEVRRPGASVKIFCKASGYSFTSSWMNWLRQAPAQGFEWMGQIYPGDGDTNYNGKFKGRLTLTADTSTDTAYMELSSLRSADTAVYYCARHYDGSTDYWGHGTIVTVSSASTTAPSVFPLAPSCGTTSGATVALACLVLGYFPEPVTVSWNSGALTSGVHTFPAVLQASGLYSLSSMVTVPSSRWLSDTFTCNVAHPPSNTKVDKTVRKTDHPPGPKPCDCPKCPPPEMLGGPSIFIFPPKPKDTLSISRTPEVTCLVVDLGPDDSDVQITWFVDNTQVYTAKTSPREEQFNSTYRVVSVLPILHQDWLKGKEFKCKVNSKSLPSPIERTISKAKGQPHEPQVYVLPPAQEELSRNKVSVTCLIKSFHPPDIAVEWEITGQPEPENNYRTTPPQLDSDGTYFVYSKLSVDRSHWQRGNTYTCSVSHEALHSHHTQKSLTQSPGK light: AITMTQSPGSLAGSPGQQVTMNCRASENIYSNLAWYQQKPGQHPKLLIYAATNLADGVPDRFSGSGSGTDFTLTISNLQAEDVASYYCQHFWGTPYTFGGGTK
